This test addresses fibrinogen. The test can be described thus: cell-based or functional assay.

Regarding decorin core protein, the Final Abs (405 nm) of thrombin-induced clot at [Decorin] 0.2 mM amounted to 0.16 Abs 405 nm, the Final Abs (405 nm) of thrombin-induced clot at [Decorin] 0.4 mM turned out to be 0.145 Abs 405 nm, the Final Abs (405 nm) of thrombin-induced clot at [Decorin] 1.0 mM came out at 0.12 Abs 405 nm and the Final Abs (405 nm) of thrombin-induced clot at [Decorin] 2.0 mM was 0.113 Abs 405 nm. Besides, the Rate (mAbs/min) of thrombin-induced clotting at [Decorin] 0.2 mM came to 61.8 mAbs/min, the Rate (mAbs/min) of thrombin-induced clotting at [Decorin] 0.4 mM turned out to be 55 mAbs/min, the Rate (mAbs/min) of thrombin-induced clotting at [Decorin] 1.0 mM is 38.8 mAbs/min and the Rate (mAbs/min) of thrombin-induced clotting at [Decorin] 2.0 mM is 34.5 mAbs/min.

For the origin of these results see patent US20060258570A1.
